Results: patent US20240417476A1 (ATYR PHARMA, published 2024)

B1: Human NRP2b v4 (906aa) with C-terminal split NanoLuc tag, expressed in Expi293F cells (receptor)
chain: QPDPPCGGRLNSKDAGYITSPGYPQDYPSHQNCEWIVYAPEPNQKIVLNFNPHFEIEKHDCKYDFIEIRDGDSESADLLGKHCGNIAPPTIISSGSMLYIKFTSDYARQGAGFSLRYEIFKTGSEDCSKNFTSPNGTIESPGFPEKYPHNLDCTFTILAKPKMEIILQFLIFDLEHDPLQVGEGDCKYDWLDIWDGIPHVGPLIGKYCGTKTPSELRSSTGILSLTFHTDMAVAKDGFSARYYLVHQEPLENFQCNVPLGMESGRIANEQISASSTYSDGRWTPQQSRLHGDDNGWTPNLDSNKEYLQVDLRFLTMLTAIATQGAISRETQNGYYVKSYKLEVSTNGEDWMVYRHGKNHKVFQANNDATEVVLNKLHAPLLTRFVRIRPQTWHSGIALRLELFGCRVTDAPCSNMLGMLSGLIADSQISASSTQEYLWSPSAARLVSSRSGWFPRIPQAQPGEEWLQVDLGTPKTVKGVIIQGARGGDSITAVEARAFVRKFKVSYSLNGKDWEYIQDPRTQQPKLFEGNMHYDTPDIRRFDPIPAQYVRVYPERWSPAGIGMRLEVLGCDWTDSKPTVETLGPTVKSEETTTPYPTEEEATECGENCSFEDDKDLQLPSGFNCNFDFLEEPCGWMYDHAKWLRTTWASSSSPNDRTFPDDRNFLRLQSDSQREGQYARLISPPVHLPRSPVCMEFQYQATGGRGVALQVVREASQESKLLWVIREDQGGEWKHGRIILPSYDMEYQIVFEGVIGKGRSGEIAIDDIRISTDVPLENCMEPISAFAGENFKGGTLLPGTEPTVDTVPMQPIPAYWYYVMAAGGAVLVLVSVALALVLHYHRFRYAAKKTDHSITYKTSHYTNGAPLAVEPTLTIKLEQDRGSHC
notes: not shown: vector-encoded spacer and split NanoLuc fragment
B2: CCR7 truncated after aa331 (without its C-terminal cytoplasmic sequence) in pBiT1.1-C with split NanoLuc tag, expressed in Expi293 cells (receptor)
chain: QDEVTDDYIGDNTTVDYTLFESLCSKKDVRNFKAWFLPIMYSIICFVGLLGNGLVVLTYIYFKRLKTMTDTYLLNLAVADILFLLTLPFWAYSAAKSWVFGVHFCKLIFAIYKMSFFSGMLLLLCISIDRYVAIVQAVSAHRHRARVLLISKLSCVGIWILATVLSIPELLYSDLQRSSSEQAMRCSLITEHVEAFITIQVAQMVIGFLVPLLAMSFCYLVIIRTLLQARNFERNKAIKVIIAVVVVFIVFQLPYNGVVLAQTVANFNITSSTCELSKQLNIAYDVTYSLACVRCCVNPFLYAFIGV
notes: Membrane protein on cells, cytoplasmic tail removed; not shown: vector-encoded spacer and large split NanoLuc fragment (pBiT1.1-C)
B3: CCR7, full coding sequence, in pBiT1.1-C with C-terminal split NanoLuc tag, expressed in Expi293F cells (receptor)
chain: QDEVTDDYIGDNTTVDYTLFESLCSKKDVRNFKAWFLPIMYSIICFVGLLGNGLVVLTYIYFKRLKTMTDTYLLNLAVADILFLLTLPFWAYSAAKSWVFGVHFCKLIFAIYKMSFFSGMLLLLCISIDRYVAIVQAVSAHRHRARVLLISKLSCVGIWILATVLSIPELLYSDLQRSSSEQAMRCSLITEHVEAFITIQVAQMVIGFLVPLLAMSFCYLVIIRTLLQARNFERNKAIKVIIAVVVVFIVFQLPYNGVVLAQTVANFNITSSTCELSKQLNIAYDVTYSLACVRCCVNPFLYAFIGVKFRNDLFKLFKDLGCLSQEQLRQWSSCRHIRRSSMSVEAETTTTFSP
notes: cDNA Genscript OHu24012; not shown: vector-encoded spacer and large split NanoLuc fragment (pBiT1.1-C)

How the values were obtained:
[1] = target: B3; assay: NanoBiT split-luciferase complementation of tagged NRP2 and CCR7 in Expi293F cells; normalized to wells without ligand
Procedure: (§1) The vectors were then transfected into Expi293F cells by Expifectamine transfection reagent (Fisher Scientific) at 1 ug per mL at a density of 1 million cells per mL. Approximately 16-20 hours post transfection, cells were washed, plated at 100,000 cells/well in luminometer plates, and then cell permeable luciferase substrate was added and luminescence was monitored on a GloMax96 (Promega) until stabilization of luminescent signal was achieved.

[2] = target: T1, Human NRP2a v2 (926aa) in pBiT2.1-C with C-terminal split NanoLuc tag, expressed in Expi293 cells (human, UniProt O60462 23-931); assay: NanoBiT complementation of NRP2a v2 and CCR7 truncated after aa331 in Expi293 cells; 100 nM CCL21; normalized to wells without ligand
T1 construct: cDNA Origene RCC220706, isoform 2; also called pBiT2.1-C-NRP2v2 (isoform 2); NRP2 v2; not shown: vector-encoded spacer and small split NanoLuc fragment (pBiT2.1-C)

[3] = target: T1, Human NRP2a v2 (926aa) in pBiT2.1-C …; assay: NanoBiT split-luciferase complementation of tagged NRP2 and CCR7 in Expi293F cells; 100 nM CCL21 or CCL19 added; normalized to wells without ligand
Procedure: as §1

[4] = target: T2, Human NRP2a v1 (931aa) with C-terminal split NanoLuc tag, expressed in Expi293F cells (human, UniProt O60462 23-931); assay: as above
T2 construct: Made by mutagenesis from the isoform 2 / isoform 5 vectors; not shown: vector-encoded spacer and split NanoLuc fragment (Promega pBiT vector)

Binder: B1
binding result [1]: no binding (tested: 100 nM CCL21 or CCL19 (from the text))

Binder: B2
binding result [2]: binds

Binder: B3
binding result [3]: binds
binding result [4]: binds
